The chains are these.
B1: peptide HD2 (from tick evasin EVA4) / CCL18 (biotinylated, synthetic) (parent complex)
chain 1: EEDDYTAYAPLTCYFT
chain 2: AQVGTNKELCCLVYTSWQIPQKFIVDYSETSPQCPKPGVILLTKRGRQICADPNKKWVQKYISDLKLNA

The assay covers variants of B1.
Regarding chain 1 EEQDYTAYAPLTCYFT, the enrichment was -2.18 log2 (difference from the parental peptide).
The figure for chain 1 EEFDYTAYAPLTCYFT is -1.57 log2 (difference from the parental peptide); for chain 1 EETDYTAYAPLTCYFT it is -2 log2 (difference from the parental peptide).
chain 1 EENDYTAYAPLTCYFT: the enrichment was -1.71 log2 (difference from the parental peptide).
The figure for chain 1 EEKDYTAYAPLTCYFT is -3.97 log2 (difference from the parental peptide).
The figure for chain 1 EEVDYTAYAPLTCYFT is -2.61 log2 (difference from the parental peptide); for chain 1 EESDYTAYAPLTCYFT it is -1.57 log2 (difference from the parental peptide).
As for chain 1 EEDDTTAYAPLTCYFT, the enrichment was -3.47 log2 (difference from the parental peptide).
Regarding chain 1 EEDDPTAYAPLTCYFT, the enrichment is -4.12 log2 (difference from the parental peptide).
With chain 1 EEDDETAYAPLTCYFT, the enrichment is -1.36 log2 (difference from the parental peptide).
As for chain 1 EEDDHTAYAPLTCYFT, the figure is -4.35 log2 (difference from the parental peptide).
The figure for chain 1 EEDDFTAYAPLTCYFT is -0.587 log2 (difference from the parental peptide).
As for chain 1 EEDDWTAYAPLTCYFT, the enrichment is 1.32 log2 (difference from the parental peptide).
On to chain 1 EEDDYTAYHPLTCYFT, for which the enrichment was -4.5 log2 (difference from the parental peptide).
On to chain 1 EEDDYTAYWPLTCYFT, for which the enrichment is -3.66 log2 (difference from the parental peptide).
chain 1 EEDDYTAYYPLTCYFT: the enrichment was -7.05 log2 (difference from the parental peptide).
As for chain 1 EEDDYTAYVPLTCYFT, the figure is -8.05 log2 (difference from the parental peptide).
The figure for chain 1 EEDDYTAYPPLTCYFT is -6 log2 (difference from the parental peptide).
As for chain 1 EEDDYTAYEPLTCYFT, the figure is -0.109 log2 (difference from the parental peptide); as for chain 1 EEDDYTAYGPLTCYFT, -3.53 log2 (difference from the parental peptide); as for chain 1 EEDDYTAYSPLTCYFT, -1.48 log2 (difference from the parental peptide).
Consider chain 1 EEDDYTAYRPLTCYFT, for which the enrichment is -1.3 log2 (difference from the parental peptide).
The figure for chain 1 EEDDYTAYTPLTCYFT is -3.35 log2 (difference from the parental peptide).
chain 1 EEDDYTVYAPLTCYFT: the enrichment is -1.12 log2 (difference from the parental peptide).
As for chain 1 EEDDYTSYAPLTCYFT, the figure is 0.379 log2 (difference from the parental peptide); as for chain 1 EEDDYTRYAPLTCYFT, 1.21 log2 (difference from the parental peptide).
For chain 1 EEDDYTGYAPLTCYFT, the enrichment was -0.215 log2 (difference from the parental peptide).
The figure for chain 1 EEDDYTEYAPLTCYFT is 2.03 log2 (difference from the parental peptide); for chain 1 EEDDYTHYAPLTCYFT it is -0.736 log2 (difference from the parental peptide).
The figure for chain 1 EEDDYTKYAPLTCYFT is 1.7 log2 (difference from the parental peptide).
Consider chain 1 EEDDYTPYAPLTCYFT, for which the enrichment is 0.82 log2 (difference from the parental peptide).
As for chain 1 EEDDYTFYAPLTCYFT, the figure is -2.38 log2 (difference from the parental peptide); as for chain 1 EEDDYTAYAPLTPYFT, -7.21 log2 (difference from the parental peptide).
The figure for chain 1 EEDDYTAYAPLTVYFT is -6.58 log2 (difference from the parental peptide); for chain 1 EEDDYTAYAPLTMYFT it is -4.59 log2 (difference from the parental peptide).
As for chain 1 EEDDYTAYAPLTFYFT, the figure is -5.66 log2 (difference from the parental peptide); as for chain 1 EEDDYTAYAPLTWYFT, -6.26 log2 (difference from the parental peptide); as for chain 1 EEDDYTAYAPLTLYFT, -7.42 log2 (difference from the parental peptide).
Turning to chain 1 EEDDYTAYAPLTCYIT, the enrichment is 0.366 log2 (difference from the parental peptide).
The figure for chain 1 EEDDYTAYAPLTCYNT is -2.68 log2 (difference from the parental peptide); for chain 1 EEDDYTAYAPLTCYTT it is 0.316 log2 (difference from the parental peptide); for chain 1 EEDDYTAYAPLTCYWT it is -0.236 log2 (difference from the parental peptide).
Turning to chain 1 EEDDYTAYAPLTCYDT, the enrichment is -4.04 log2 (difference from the parental peptide).
The figure for chain 1 EEDDYTAYAPLTCYKT is -0.831 log2 (difference from the parental peptide).
As for chain 1 EEDDYTAYAPLTCYST, the figure is -0.989 log2 (difference from the parental peptide); as for chain 1 EEDDYTAYAPLTCYMT, 0.0729 log2 (difference from the parental peptide).
Regarding chain 1 EEDDYTAYAPLTCYRT, the enrichment was -0.00139 log2 (difference from the parental peptide).
The figure for chain 1 EEDDYTAYAPLTCYET is -2.62 log2 (difference from the parental peptide); for chain 1 EEDDYTAYAPLTCYHT it is 0.242 log2 (difference from the parental peptide); for chain 1 EEDDYTAYAPLTCYVT it is 1.03 log2 (difference from the parental peptide).
With chain 1 EEDAYTAYAPLTCYFT, the enrichment was -1.65 log2 (difference from the parental peptide).
With chain 1 EEDWYTAYAPLTCYFT, the enrichment is -1.54 log2 (difference from the parental peptide).
For chain 1 EEDFYTAYAPLTCYFT, the enrichment was -2.31 log2 (difference from the parental peptide).
Consider chain 1 EEDHYTAYAPLTCYFT, for which the enrichment was -3.06 log2 (difference from the parental peptide).
Take chain 1 EEDYYTAYAPLTCYFT: the enrichment was -1.35 log2 (difference from the parental peptide).
The figure for chain 1 EEDNYTAYAPLTCYFT is -1.99 log2 (difference from the parental peptide); for chain 1 EEDEYTAYAPLTCYFT it is -0.211 log2 (difference from the parental peptide); for chain 1 EEDDYTAYAPLTCYFW it is -0.639 log2 (difference from the parental peptide).
As for chain 1 EEDDYTAYAPLTCYFM, the figure is 0.26 log2 (difference from the parental peptide); as for chain 1 EEDDYTAYAPLTCYFY, -0.525 log2 (difference from the parental peptide); as for chain 1 EEDDYTAYAPLTCYFE, 1.13 log2 (difference from the parental peptide).
With chain 1 EEDDYTAYAPLTCYFV, the enrichment is 0.0426 log2 (difference from the parental peptide).
The figure for chain 1 EEDDYTAYAPLTCYFP is 1.74 log2 (difference from the parental peptide).
The figure for chain 1 EEDDYTAYAPLTCYFS is 0.936 log2 (difference from the parental peptide); for chain 1 EEDDYTAYAPLTCNFT it is -4.78 log2 (difference from the parental peptide).
The figure for chain 1 EEDDYTAYAPLTCIFT is -0.627 log2 (difference from the parental peptide); for chain 1 EEDDYTAYAPLTCAFT it is -5.59 log2 (difference from the parental peptide).
Take chain 1 EEDDYTAYAPLTCQFT: the enrichment is -3.29 log2 (difference from the parental peptide).
The figure for chain 1 EEDDYTAYAPLTCDFT is -5.4 log2 (difference from the parental peptide).
As for chain 1 EEDDYTAYAPLTCTFT, the figure is -1.1 log2 (difference from the parental peptide).
The figure for chain 1 DEDDYTAYAPLTCYFT is 1.97 log2 (difference from the parental peptide); for chain 1 HEDDYTAYAPLTCYFT it is -1.83 log2 (difference from the parental peptide).
With chain 1 GEDDYTAYAPLTCYFT, the enrichment was -0.506 log2 (difference from the parental peptide).
As for chain 1 QEDDYTAYAPLTCYFT, the figure is -1.1 log2 (difference from the parental peptide); as for chain 1 WEDDYTAYAPLTCYFT, -2.19 log2 (difference from the parental peptide); as for chain 1 SEDDYTAYAPLTCYFT, -0.81 log2 (difference from the parental peptide).
With chain 1 ELDDYTAYAPLTCYFT, the enrichment is -1.93 log2 (difference from the parental peptide).
As for chain 1 EWDDYTAYAPLTCYFT, the figure is -1.25 log2 (difference from the parental peptide); as for chain 1 ETDDYTAYAPLTCYFT, -2.6 log2 (difference from the parental peptide).
Consider chain 1 EPDDYTAYAPLTCYFT, for which the enrichment was -2.55 log2 (difference from the parental peptide).
As for chain 1 EHDDYTAYAPLTCYFT, the figure is -2.48 log2 (difference from the parental peptide); as for chain 1 EMDDYTAYAPLTCYFT, -1.79 log2 (difference from the parental peptide); as for chain 1 EADDYTAYAPLTCYFT, -1.63 log2 (difference from the parental peptide).
Consider chain 1 EQDDYTAYAPLTCYFT, for which the enrichment is -1.4 log2 (difference from the parental peptide).
Turning to chain 1 EEDDYTAYAPDTCYFT, the enrichment is -8.28 log2 (difference from the parental peptide).
The figure for chain 1 EEDDYTAYAPETCYFT is -3.32 log2 (difference from the parental peptide); for chain 1 EEDDYTAYAPPTCYFT it is -3.17 log2 (difference from the parental peptide).
The figure for chain 1 EEDDYTAYAPGTCYFT is -7.45 log2 (difference from the parental peptide); for chain 1 EEDDYTAYAQLTCYFT it is -5.59 log2 (difference from the parental peptide).
As for chain 1 EEDDYTAYAYLTCYFT, the figure is -6.76 log2 (difference from the parental peptide).
As for chain 1 EEDDYTAYAWLTCYFT, the enrichment is -5.72 log2 (difference from the parental peptide).
Regarding chain 1 EEDDYTAYAALTCYFT, the enrichment is -7.91 log2 (difference from the parental peptide).
As for chain 1 EEDDYHAYAPLTCYFT, the figure is 0.0995 log2 (difference from the parental peptide); as for chain 1 EEDDYGAYAPLTCYFT, 2.9 log2 (difference from the parental peptide); as for chain 1 EEDDYKAYAPLTCYFT, -0.184 log2 (difference from the parental peptide).
The figure for chain 1 EEDDYDAYAPLTCYFT is 2.62 log2 (difference from the parental peptide); for chain 1 EEDDYPAYAPLTCYFT it is -2.2 log2 (difference from the parental peptide).
Regarding chain 1 EEDDYYAYAPLTCYFT, the enrichment was -0.339 log2 (difference from the parental peptide).
The figure for chain 1 EEDDYNAYAPLTCYFT is 1.41 log2 (difference from the parental peptide); for chain 1 EEDDYLAYAPLTCYFT it is -1.51 log2 (difference from the parental peptide); for chain 1 EEDDYMAYAPLTCYFT it is 0.172 log2 (difference from the parental peptide).
The figure for chain 1 EEDDYTAYAPLDCYFT is -4.6 log2 (difference from the parental peptide); for chain 1 EEDDYTAYAPLKCYFT it is -4.78 log2 (difference from the parental peptide); for chain 1 EEDDYTAYAPLPCYFT it is 1.92 log2 (difference from the parental peptide).
The figure for chain 1 EEDDYTAYAPLHCYFT is -0.953 log2 (difference from the parental peptide); for chain 1 EEDDYTAYAPLMCYFT it is 0.511 log2 (difference from the parental peptide); for chain 1 EEDDYTAWAPLTCYFT it is 0.189 log2 (difference from the parental peptide).
chain 1 EEDDYTANAPLTCYFT: the enrichment is -8.33 log2 (difference from the parental peptide).
Consider chain 1 EEDDYTALAPLTCYFT, for which the enrichment is -6.1 log2 (difference from the parental peptide).
The figure for chain 1 EEDDYTAIAPLTCYFT is -7.58 log2 (difference from the parental peptide).
The figure for chain 1 EEDDYTATAPLTCYFT is -4.68 log2 (difference from the parental peptide); for chain 1 EEDDYTACAPLTCYFT it is -8.88 log2 (difference from the parental peptide).

The record behind these values is PMC11969024 (2025).
